Measurements reported in patent publication US20070020717A1.

Tests used:
Conditions in all cases: chains peptide; modification not given
[1] = target: T1, GST-PDZ fusion protein, PDZ domain of SHANK1 (GID 7025450), D3YZU1; assay: ELISA
T1 chain: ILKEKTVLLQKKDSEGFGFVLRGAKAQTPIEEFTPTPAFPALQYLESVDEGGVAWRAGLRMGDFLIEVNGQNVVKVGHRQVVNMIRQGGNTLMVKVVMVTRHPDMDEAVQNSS

[2] = target: T2, GST-PDZ fusion protein, PDZ domain of SHANK2 (GID 6049185), Q9UPX8; assay: ELISA
T2 chain: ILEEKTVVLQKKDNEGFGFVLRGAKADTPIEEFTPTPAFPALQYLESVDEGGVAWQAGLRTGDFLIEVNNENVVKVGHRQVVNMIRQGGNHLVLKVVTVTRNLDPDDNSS

[3] = target: T3, GST-PDZ fusion protein, PDZ domain of MAST2 (Accession no. AB047005), Q6P0Q8; assay: ELISA (G Assay)
T3 chain: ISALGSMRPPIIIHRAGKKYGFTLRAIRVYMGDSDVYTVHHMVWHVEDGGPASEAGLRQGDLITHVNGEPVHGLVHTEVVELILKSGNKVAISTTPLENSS

RRRSGLDDINPTVLLKERSTEL [Peptide 1957]
EC50 [1]: 66.3 µM
EC50 [2]: 62 µM
EC50 [3]: 23.1 µM
